# Experimental data: patent US20240343803A1 (SHANDONG SIMCERE BIOPHARMACEUTICAL, published 2024)
# Residue numbers refer to the chain shown, from its start.
# T1: full-length human TIGIT on CHO-K1 cells (CHO-K1 human TIGIT) (human, UniProt Q495A1 22-244)
# T1 construct: NCBI XP_024309156.1; entry includes the signal peptide; also called high expression strain 1D2; medium expression strain 2D10
# T1 sequence: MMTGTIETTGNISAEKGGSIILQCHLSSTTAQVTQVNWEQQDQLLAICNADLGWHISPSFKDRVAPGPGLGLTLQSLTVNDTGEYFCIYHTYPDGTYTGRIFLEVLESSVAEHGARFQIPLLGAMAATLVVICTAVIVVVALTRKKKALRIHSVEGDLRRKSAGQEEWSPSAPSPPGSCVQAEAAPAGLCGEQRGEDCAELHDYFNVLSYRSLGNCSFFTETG
# T2: human TIGIT ECD-mFc (fusion protein of extracellular domain of human TIGIT and mouse IgG2a Fc fragment) (human)
# T2 chain: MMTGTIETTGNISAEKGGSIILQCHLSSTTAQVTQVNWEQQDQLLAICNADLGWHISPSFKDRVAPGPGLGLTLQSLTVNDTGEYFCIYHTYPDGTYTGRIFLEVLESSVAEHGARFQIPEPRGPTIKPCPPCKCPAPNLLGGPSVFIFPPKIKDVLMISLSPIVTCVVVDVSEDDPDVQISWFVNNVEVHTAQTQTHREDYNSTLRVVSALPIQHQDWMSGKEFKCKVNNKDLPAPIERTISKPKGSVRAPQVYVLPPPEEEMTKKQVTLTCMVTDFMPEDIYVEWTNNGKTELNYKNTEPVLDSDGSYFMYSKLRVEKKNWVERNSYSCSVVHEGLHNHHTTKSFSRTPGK
# T3: human TIGIT ECD-his (fusion protein of extracellular domain of human TIGIT and His-tag) (human)
# T3 construct: entry includes the signal peptide, limits not readable here
# T3 chain: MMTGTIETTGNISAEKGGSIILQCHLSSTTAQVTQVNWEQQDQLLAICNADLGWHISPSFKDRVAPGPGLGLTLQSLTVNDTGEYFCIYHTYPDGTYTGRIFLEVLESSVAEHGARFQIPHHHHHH
# B1: TIGIT-CHI-070 (antibody, V domains shown)
# VH: QVQLQQPGTELVKPGASVKLSCRASGYTFTNYYMHWVKQRPGRGLEWIGRIDPDSGGSKYNEKFKSKATLTVDKLSSTAYMQLSSLTSEDSAVYYCAREGHYGFYSDYWGQGTTLTVSS
# VL: DIQMTQSPASLSASVGETVTITCRVSENIYSYLAWYQQKQGKSPQLLVYNAKTLAEGVPSRFSGSGSGTQFSLKINSLQPEDFGNYYCQHHYGNPLTFGAGTKLDLK
# notes: human-mouse chimeric antibody
# B2: TIGIT-CHI-002 (antibody, V domains shown)
# VH: EVQLQESGPGLAKPSQTLSLACSVTGYSITSDSWNWIRKFPGNKLEYMGYISYSGNTYYNPSLKSRISITRDTSKNQFYLQLNSVTTEDTATYYCARLDFSNYGGAVDYWGQGTSVTVSS
# VL: DIVMTQSHTFMSTSVGDRVSITCKASQNVRTAVAWYQQKPGQSPKLMIYSASYRYTGVPDRFTGSGSGTDFTFTISSVQAEDLAVYYCQQYYTTPWTFGGGAKLEIQ
# notes: human-mouse chimeric antibody
# B3: TIGIT-CHI-006 (antibody, V domains shown)
# VH: B2 VH with L18P, A21T, I29M, S33Y, N56R, L98G, F100Y, V107M, D108Y, Y109D
# VL: DIVMTQSHKFMSTSVGDRVSITCRASQGVSTTIAWYQQKPGQSPKLLIYSASYRYTGVPDRFTGSGSGTDFTFTISGVQAEDLAVYYCQQYYSSPFTFGGGTKLEIK
# notes: human-mouse chimeric antibody
# B4: TIGIT-CHI-005 (antibody, V domains shown)
# VH: QVQLQQSGAELVRPGTSVKVSCKASGYAFTNYLIEWVKQRPGQGLEWIGVINPGSGGTNYKEKFKGKATLTADKSSSTAYMQLSSLTSEDSAVYFCARGEYFFFDYWGQGTTLTVSS
# VL: DIVMTQSHKFMSTSVGDRVSITCKASQHVSNGVAWYQHKPGQSPKLLIYSASYRYTGVPDRFTGTGSGTDFTFTISSVQAEDLAVYYCQQHYNTPHTFGGGTKLEIK
# notes: human-mouse chimeric antibody
# Target: T1, full-length human TIGIT on CHO-K1 cells …
# Assay: FACS, high expression strain
# Method: (§1) The collected cells were washed once with PBS (Hyclone, CAT #SH30256), resuspended to 2×10⁵/50 μL with 1% BSA-PBS. The antibodies were diluted to 80 nM with 1% BSA-PBS (diluted by 3-fold serial dilution for 12 concentration points). The 50 μL cells were then mixed with 50 μL diluted antibodies, and then incubated at 4° C. for 60 minutes. […] After washing twice with PBS, the cell samples were resuspended with 1% BSA-PBS, 100 μL/well and then analyzed by flow cytometry (BD, Canto II). […] [0298] (c) The effect of anti-TIGIT chimeric antibodies blocking the interaction between Bio-CD155-His and CHO-K1 human TIGIT high expression cell strains detected by FACS
row,EC50,Binder
1,0.517 nM,B1
2,0.299 nM,B2
3,0.502 nM,B3
4,0.342 nM,B4

# Target: T4, full-length cynomolgus monkey TIGIT on CHO-K1 cells (CHO-K1 cynomolgus monkey TIGIT) (cynomolgus monkey)
# T4 construct: NCBI XP_015300911.1; also called cynomolgus monkey TIGIT cells
# T4 sequence (chain, as listed by the source limits assumed): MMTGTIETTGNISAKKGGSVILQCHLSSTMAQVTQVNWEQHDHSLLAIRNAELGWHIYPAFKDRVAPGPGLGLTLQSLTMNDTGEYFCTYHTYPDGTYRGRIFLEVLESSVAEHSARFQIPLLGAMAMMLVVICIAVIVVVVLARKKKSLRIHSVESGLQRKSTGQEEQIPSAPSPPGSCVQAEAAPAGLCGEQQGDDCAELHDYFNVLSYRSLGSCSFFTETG
# Assay: FACS
# Method: as §1
row,EC50,Binder
1,0.0359 nM,B1
2,0.029 nM,B2
3,0.0731 nM,B3
4,0.0264 nM,B4

# Target: T1, full-length human TIGIT on CHO-K1 cells …
# Assay: FACS, medium expression strain
# Method: as §1
row,EC50,Binder
1,0.394 nM,B1
2,0.29 nM,B2
3,0.481 nM,B3
4,0.316 nM,B4

# Target: T1, full-length human TIGIT on CHO-K1 cells …
# Assay: FACS, competition: Bio-CD155-His to CHO-K1 human TIGIT
# Method: The collected cells were washed once with PBS (Hyclone, CAT #SH30256), resuspended to 2×10⁵/40 μL with 1% BSA-PBS. The antibodies were diluted to 210 nM with 1% BSA-PBS (diluted by 3-fold serial dilution for 12 concentration points). […] The 40 μL cells were then mixed with 40 μL diluted antibodies and 40 μL diluted Bio-CD155-His, and then incubated at 4° C. for 60 minutes. The cells were washed twice with PBS, resuspended with APC labeled streptavidin (dilution ratio 1:1700, Biolegend, 405243), 100 μL/well, and incubated at 4° C. for 40 minutes. The cell samples were washed twice with PBS, resuspended with 1% BSA-PBS, 100 μL/well and then analyzed by flow cytometry (BD, Canto II). […] [0300] (d) The effect of anti-TIGIT chimeric antibodies blocking the interaction between TIGIT ECD-mFc and CHO-K1 CD155 detected by FACS
row,IC50,Binder
1,0.384 nM,B1
2,0.152 nM,B2
3,0.246 nM,B3
4,0.158 nM,B4

# Target: T5, cynomolgus monkey TIGIT ECD-mFc (extracellular domain of cynomolgus monkey TIGIT and mouse IgG2a Fc fragment) (cynomolgus monkey)
# T5 construct: entry includes the signal peptide, limits not readable here
# T5 sequence (chain, as listed by the source limits assumed): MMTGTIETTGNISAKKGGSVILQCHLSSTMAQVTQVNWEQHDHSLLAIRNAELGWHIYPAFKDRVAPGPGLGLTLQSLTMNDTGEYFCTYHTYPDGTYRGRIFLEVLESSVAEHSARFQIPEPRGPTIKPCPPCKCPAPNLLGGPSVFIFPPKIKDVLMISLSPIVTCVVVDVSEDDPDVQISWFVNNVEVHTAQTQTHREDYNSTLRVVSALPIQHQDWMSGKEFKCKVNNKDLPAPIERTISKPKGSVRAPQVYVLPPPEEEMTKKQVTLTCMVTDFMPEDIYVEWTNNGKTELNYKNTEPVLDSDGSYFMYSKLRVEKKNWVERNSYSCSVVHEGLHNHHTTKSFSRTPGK
# Assay: ELISA
# Method: (§2) After discarding the coating solution, the plate was added with 5% skim milk powder (Sangon Biotech, CAT #A600669-0250)-PBS, 250 μL/well, and incubated at 37° C. for 2-4 hours. […] The enzyme-labeled plate was then washed with 0.05% Tween 20-PBS for 3 times on the Microplate Washer, added with tested antibodies diluted to 13 nM with 1% BSA (diluted by 3-fold serial dilution for 12 concentration points), 50 μL/well, and incubated at 37° C. for 1.5-2 hours. The plate was washed with 0.05% Tween 20-PBS for 3 times on the Microplate Washer, then added with HRP enzyme-labeled antibodies (Merck, CAT #AP113P) diluted with 1% BSA (Sangon Biotech, CAT #A500023-0100)-PBS at a dilution ratio of 1:5000, 50 μL/well, and incubated at 37° C. for 1 hour. After washing 3 times with 0.05% Tween 20-PBS on the Microplate Washer, the plate was added with TMB chromogenic solution (KPL, CAT #52-00-03), 50 μL/well, and incubated at room temperature for 7-10 minutes. 1M HCL, 50 μL/well, was then added into the plate to terminate the reaction, and the OD450 nm was read by a microplate reader (Biotek, Powerwave HT). […] (b) The binding activity of anti-TIGIT chimeric antibodies to CHO-K1 human TIGIT (cells with high, medium and low expression levels) and CHO-KI cynomolgus monkey TIGIT detected by FACS.
row,EC50,Binder
1,0.0163 nM,B1
2,0.0165 nM,B2
3,0.0389 nM,B3
4,0.017 nM,B4

# Target: T2, human TIGIT ECD-mFc (fusion protein of …)
# Assay: ELISA
# Method: as §2
row,EC50,Binder
1,0.0145 nM,B1
2,0.0181 nM,B2
3,0.0167 nM,B3
4,0.0173 nM,B4

# Target: T3, human TIGIT ECD-his (fusion protein of …)
# Assay: BIAcore kinetics
Kd,koff,kon,Binder
0.3 nM,0.000456 s⁻¹,1.52e+06 M⁻¹ s⁻¹,B1
0.0697 nM,0.000315 s⁻¹,4.53e+06 M⁻¹ s⁻¹,B2
0.132 nM,0.00017 s⁻¹,1.29e+06 M⁻¹ s⁻¹,B3
0.0536 nM,0.000192 s⁻¹,3.59e+06 M⁻¹ s⁻¹,B4

# Target: T2, human TIGIT ECD-mFc (fusion protein of …)
# Assay: FACS, competition: hTIGIT ECD-mFc to CHO-K1 CD155
# Method: The collected CHO-K1 CD155 cells were washed once with PBS (Hyclone, CAT #SH30256) and resuspended to 2×10⁵/40 μL with 1% BSA-PBS. The tested antibodies were diluted to 600 nM with 1% BSA-PBS (diluted by 2.5-fold serial dilution for 12 concentration points). The TIGIT ECD-mFc was diluted with 1% BSA-PBS to 6 μg/mL. The 40 μL cells were then mixed with 40 μL diluted antibodies and 40 μL diluted TIGIT ECD-mFc, and then incubated at 4° C. for 60 minutes. […] The cell samples were washed twice with PBS, resuspended to 100 μL/well with 1% BSA-PBS and then analyzed by flow cytometry (BD, Canto II).
row,IC50,Binder
1,0.582 nM,B1
2,0.368 nM,B2
3,0.572 nM,B3
4,0.363 nM,B4

# Target: T1, full-length human TIGIT on CHO-K1 cells …
# Assay: FACS, low expression strain
# Method: as §1
row,EC50,Binder
1,0.352 nM,B1
2,0.218 nM,B2
3,0.329 nM,B3
4,0.229 nM,B4
